Earlier results, collected in article PMC3121775.

Molecular target: Harakiri BH3 peptide BH3 (Homo sapiens) (UniProt O00198)
Experiment: fluorescence

Chain of Bcl-xL (Q07817 whole entry): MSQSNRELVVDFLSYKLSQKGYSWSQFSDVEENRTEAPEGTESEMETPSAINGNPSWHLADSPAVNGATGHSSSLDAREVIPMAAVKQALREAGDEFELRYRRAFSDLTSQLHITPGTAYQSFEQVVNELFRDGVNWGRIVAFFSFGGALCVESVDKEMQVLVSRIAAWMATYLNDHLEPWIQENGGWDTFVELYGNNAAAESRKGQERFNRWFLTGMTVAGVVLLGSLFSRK

## Bcl-xL (from UniProt Q07817)
  Kd: 92 nM
